Here are results for 22 compounds from US9845340B2, “Peptides that specifically bind HGF receptor (cMet) and uses thereof” (Dyax Corp., priority 2003, dated 2017).

The target of one test is cMet-Fc fusion protein (Homo sapiens, UniProt P08581). Nature of the test: Protein phage ELISA: peptide-displaying phage binding to soluble cMet-Fc versus TRAIL-Fc. As to conditions: phage isolate; cMet-Fc vs. TRAIL-Fc. The essentials: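 Plates coated with 0.5 μg/mL cMet-Fc or, as background, TRAIL-Fc, then blocked with 3% BSA in PBST. Peptide-displaying phage bound 2 h at room temperature. Detection with HRP-anti-M13 antibody.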
cMet-Fc fusion protein, sequence (P08581 25-307 limits assumed): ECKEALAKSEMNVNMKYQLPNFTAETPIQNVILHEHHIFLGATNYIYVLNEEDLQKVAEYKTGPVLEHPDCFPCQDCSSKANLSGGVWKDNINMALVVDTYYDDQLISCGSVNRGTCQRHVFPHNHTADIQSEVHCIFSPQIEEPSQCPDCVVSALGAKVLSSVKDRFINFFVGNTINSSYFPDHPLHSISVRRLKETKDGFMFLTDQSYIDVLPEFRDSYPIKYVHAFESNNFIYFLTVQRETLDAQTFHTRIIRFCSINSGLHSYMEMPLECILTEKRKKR
cMet-Fc fusion protein, sequence (P08581 with tags, fused parts or gaps limits assumed): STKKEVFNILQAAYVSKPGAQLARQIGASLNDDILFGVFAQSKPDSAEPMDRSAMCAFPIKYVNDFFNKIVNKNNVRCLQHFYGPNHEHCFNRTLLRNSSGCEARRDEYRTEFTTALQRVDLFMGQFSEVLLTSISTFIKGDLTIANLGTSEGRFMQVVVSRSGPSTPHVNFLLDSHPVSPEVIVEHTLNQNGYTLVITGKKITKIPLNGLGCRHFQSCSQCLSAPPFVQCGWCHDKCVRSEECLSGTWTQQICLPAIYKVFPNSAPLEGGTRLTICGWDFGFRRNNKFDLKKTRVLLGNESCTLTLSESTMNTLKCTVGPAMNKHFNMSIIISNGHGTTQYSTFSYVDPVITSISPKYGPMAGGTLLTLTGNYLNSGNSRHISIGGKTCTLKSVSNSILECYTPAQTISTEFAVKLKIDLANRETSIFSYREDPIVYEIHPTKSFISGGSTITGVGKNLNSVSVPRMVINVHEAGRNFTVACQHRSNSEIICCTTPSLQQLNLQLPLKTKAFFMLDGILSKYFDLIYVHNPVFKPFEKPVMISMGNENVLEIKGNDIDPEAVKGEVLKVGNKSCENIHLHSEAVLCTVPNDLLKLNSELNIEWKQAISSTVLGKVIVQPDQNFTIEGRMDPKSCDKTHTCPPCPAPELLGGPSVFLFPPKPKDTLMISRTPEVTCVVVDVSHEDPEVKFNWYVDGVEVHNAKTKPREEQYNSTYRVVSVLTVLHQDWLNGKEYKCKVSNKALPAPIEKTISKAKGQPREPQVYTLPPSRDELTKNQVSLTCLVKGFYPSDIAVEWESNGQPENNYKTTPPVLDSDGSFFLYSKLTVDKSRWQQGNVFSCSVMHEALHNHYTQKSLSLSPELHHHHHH
On the technique in general: An ELISA detects its analyte on a solid surface through an enzyme-linked reagent.

For test [1], the target named is T1, 3T3 cells that over-express human cMet (Homo sapiens, UniProt P08581).
T1 construct: expressed in transfected cells; host or cells: 3T3 cells
T1 sequence (P08581 25-1390): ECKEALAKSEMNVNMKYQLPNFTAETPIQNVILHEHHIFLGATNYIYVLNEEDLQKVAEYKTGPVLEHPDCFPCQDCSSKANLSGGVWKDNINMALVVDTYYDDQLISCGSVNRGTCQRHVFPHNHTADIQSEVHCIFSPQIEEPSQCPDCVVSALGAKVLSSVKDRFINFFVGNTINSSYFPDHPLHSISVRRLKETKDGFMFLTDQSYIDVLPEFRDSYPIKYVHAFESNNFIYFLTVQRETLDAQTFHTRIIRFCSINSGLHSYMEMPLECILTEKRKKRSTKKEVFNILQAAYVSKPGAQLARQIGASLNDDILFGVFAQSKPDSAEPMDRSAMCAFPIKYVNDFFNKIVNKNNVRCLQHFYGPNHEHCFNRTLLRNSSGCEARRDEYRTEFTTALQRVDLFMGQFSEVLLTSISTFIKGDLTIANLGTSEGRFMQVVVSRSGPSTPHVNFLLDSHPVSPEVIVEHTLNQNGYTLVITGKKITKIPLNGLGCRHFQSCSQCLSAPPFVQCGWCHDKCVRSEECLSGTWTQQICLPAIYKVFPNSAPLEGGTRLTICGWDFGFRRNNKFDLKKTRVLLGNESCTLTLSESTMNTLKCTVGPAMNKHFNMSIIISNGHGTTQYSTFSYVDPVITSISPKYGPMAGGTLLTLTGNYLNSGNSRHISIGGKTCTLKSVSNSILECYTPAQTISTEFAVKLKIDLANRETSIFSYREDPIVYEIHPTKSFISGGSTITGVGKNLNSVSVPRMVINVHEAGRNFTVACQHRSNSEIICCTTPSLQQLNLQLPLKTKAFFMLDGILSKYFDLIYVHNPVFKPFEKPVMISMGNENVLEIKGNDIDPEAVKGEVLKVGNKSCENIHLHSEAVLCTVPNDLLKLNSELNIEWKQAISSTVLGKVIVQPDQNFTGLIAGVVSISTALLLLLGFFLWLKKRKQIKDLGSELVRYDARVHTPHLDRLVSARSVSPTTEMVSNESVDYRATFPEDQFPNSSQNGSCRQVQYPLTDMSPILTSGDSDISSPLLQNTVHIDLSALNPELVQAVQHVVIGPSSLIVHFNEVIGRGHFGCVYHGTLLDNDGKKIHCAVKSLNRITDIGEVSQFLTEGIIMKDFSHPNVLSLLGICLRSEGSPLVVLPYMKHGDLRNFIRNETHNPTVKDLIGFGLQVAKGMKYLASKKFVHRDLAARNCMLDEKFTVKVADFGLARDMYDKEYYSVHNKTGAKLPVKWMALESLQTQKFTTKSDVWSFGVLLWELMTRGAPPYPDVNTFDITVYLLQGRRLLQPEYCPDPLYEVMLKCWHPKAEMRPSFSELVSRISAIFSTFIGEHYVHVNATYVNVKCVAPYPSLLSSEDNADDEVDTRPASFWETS
Nature of the test: Whole cell ELISA of peptide-displaying phage. The following applies: phage isolate; 3T3 cells expressing human cMet vs. non-expressing 3T3 cells. The test is classed as cell-based. In a few lines: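 3T3 cells over-expressing human cMet seeded 10^5/well, pelleted and fixed with 0.1% glutaraldehyde 12 min at 37 °C. Blocked peptide-displaying phage bound 1 h at room temperature; after PBST wash, bound phage detected with HRP-conjugated anti-M13 antibody.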

With `CC[C@H](C)[C@H](NC(=O)[C@H](Cc1ccccc1)NC(=O)[C@H](CCC(N)=O)NC(=O)[C@H](Cc1ccccc1)NC(=O)[C@@H](NC(=O)[C@H](Cc1c[nH]c2ccccc12)NC(=O)[C@@H](NC(=O)[C@H](CC(=O)O)NC(=O)[C@H](Cc1ccc(O)cc1)NC(=O)[C@H](CCC(N)=O)NC(=O)[C@H](C)NC(C)=O)[C@@H](C)O)C(C)C)C(=O)N[C@@H](Cc1c[nH]cn1)C(=O)N[C@@H](CCC(=O)O)C(=O)N[C@H](C(=O)N1CCC[C@H]1C(=O)NCC(=O)N[C@@H](CCC(=O)O)C(=O)N[C@@H](CC(C)C)C(=O)N[C@H](C(=O)N[C@@H](C)C(=O)N[C@@H](CCSC)C(=O)N[C@@H](CCC(N)=O)C(=O)NCC(=O)NCC(=O)NCC(=O)N[C@@H](CCCCNC(=O)c1ccc2c(c1)C(=O)OC21c2ccc(O)cc2Oc2cc(O)ccc21)C(N)=O)C(C)C)C(C)C` [SEQ ID NO: 454], the “Protein ELISA” value on cMet-Fc fusion protein was determined as 8.9 fold over background. Further, the “WC ELISA” value in test [1] came to 1.23 fold over background.
For `CC[C@H](C)[C@H](NC(=O)[C@H](C)NC(=O)[C@H](CCC(=O)O)NC(=O)[C@H](C)NC(=O)[C@@H](NC(=O)CNC(=O)[C@@H](NC(=O)[C@H](CCC(N)=O)NC(=O)[C@H](C)NC(C)=O)C(C)C)[C@@H](C)O)C(=O)N[C@@H](CCSC)C(=O)N[C@@H](Cc1ccccc1)C(=O)N[C@@H](CO)C(=O)N[C@@H](CC(=O)O)C(=O)N[C@H](C(=O)N[C@@H](CCC(=O)O)C(=O)N[C@@H](CC(=O)O)C(=O)N[C@H](C(=O)NCC(=O)N[C@H](C(=O)N[C@@H](Cc1c[nH]cn1)C(=O)N[C@@H](CCCCN)C(=O)N[C@@H](Cc1ccccc1)C(=O)NCC(=O)NCC(=O)NCC(=O)N[C@@H](CCCCNC(=O)c1ccc2c(c1)C(=O)OC21c2ccc(O)cc2Oc2cc(O)ccc21)C(N)=O)C(C)C)[C@@H](C)O)C(C)C` [SEQ ID NO: 459], in that order: 5.7 fold over background and 1.33 fold over background.
“GSAGWCYTMNYVDQLCTYMAP (Synthetically generated cMet-binding peptide sequence) [SEQ ID NO: 387]”: the “Protein ELISA” value with cMet-Fc fusion protein turned out to be 3.7 fold over background. Moreover, the “WC ELISA” value in test [1] is 1.43 fold over background.
In the same order, the values of `CC[C@H](C)[C@@H]1NC(=O)[C@H](Cc2ccccc2)NC(=O)[C@H](CCC(=O)O)NC(=O)[C@@H](NC(=O)[C@H](Cc2c[nH]cn2)NC(=O)[C@H](Cc2ccccc2)NC(=O)[C@H](CC(=O)O)NC(=O)[C@H](CC(=O)O)NC(=O)CNC(C)=O)CSSC[C@@H](C(=O)N[C@@H](Cc2ccc(O)cc2)C(=O)N[C@@H](Cc2ccccc2)C(=O)N[C@@H](CC(N)=O)C(=O)N[C@@H](CC(=O)O)C(=O)N2CCC[C@H]2C(=O)NCC(=O)NCC(=O)NCC(=O)N[C@@H](CCCCNC(=O)c2ccc3c(c2)C(=O)OC32c3ccc(O)cc3Oc3cc(O)ccc32)C(N)=O)NC(=O)[C@H]([C@@H](C)CC)NC(=O)[C@H](CCC(=O)O)NC(=O)[C@H](CO)NC(=O)[C@H](CCC(N)=O)NC(=O)[C@H](Cc2ccc(O)cc2)NC(=O)[C@H](CC(=O)O)NC(=O)[C@H](CC(=O)O)NC1=O` [SEQ ID NO: 391] are 12.4 fold over background and 1.37 fold over background.
For the compound “GDPWWCFEKDSFIPFACWHHDP (Synthetically generated cMet-binding peptide sequence) [SEQ ID NO: 396]”, the “Protein ELISA” value with cMet-Fc fusion protein amounted to 7.4 fold over background. Moreover, in test [1], the “WC ELISA” value was found to be 1.30 fold over background.
In the same order, the values of “AGQFKCAGPPSFACWMTGT (Synthetically generated cMet-binding peptide sequence) [SEQ ID NO: 050]” are 14.8 fold over background and 1.43 fold over background.
Regarding “GDLLGCGYQEKGGEYKCRFNDP (Synthetically generated cMet-binding peptide sequence) [SEQ ID NO: 395]”, in the test with cMet-Fc fusion protein, the “Protein ELISA” value is recorded as 13.5 fold over background. In addition, the “WC ELISA” value in test [1] is on record as 1.40 fold over background.
Regarding “AGVLQCIGFEWFCDIWGT (Synthetically generated cMet-binding peptide sequence) [SEQ ID NO: 022]”, the “Protein ELISA” value with cMet-Fc fusion protein was determined as 3.4 fold over background. In addition, in test [1], the “WC ELISA” value turned out to be 1.40 fold over background.
For the compound `CC[C@H](C)[C@H](NC(=O)[C@H](Cc1c[nH]c2ccccc12)NC(=O)CNC(=O)[C@H](C)NC(C)=O)C(=O)N[C@@H](CO)C(=O)N[C@H]1CSSC[C@@H](C(=O)N[C@@H](Cc2c[nH]c3ccccc23)C(=O)N2CCC[C@H]2C(=O)NCC(=O)NCC(=O)N[C@H](C(=O)NCC(=O)NCC(=O)NCC(=O)N[C@@H](CCCCNC(=O)c2ccc3c(c2)C(=O)OC32c3ccc(O)cc3Oc3cc(O)ccc32)C(N)=O)[C@@H](C)O)NC(=O)[C@H](C)NC(=O)[C@H](Cc2ccccc2)NC(=O)[C@H]([C@@H](C)O)NC(=O)[C@@H]2CCCN2C(=O)[C@@H]2CCCN2C(=O)CNC(=O)[C@H](C)NC1=O` [SEQ ID NO: 056], on cMet-Fc fusion protein, the “Protein ELISA” value is on record as 14.3 fold over background. Further, in test [1], the “WC ELISA” value was 1.23 fold over background.
On to “AGTWHCAGPPWFTCYMDGT (Synthetically generated cMet-binding peptide sequence) [SEQ ID NO: 069]”, for which, in the test with cMet-Fc fusion protein, the “Protein ELISA” value is on record as 9.0 fold over background. Besides, in test [1], the “WC ELISA” value was 1.30 fold over background.
Regarding “AQDPGFSKHSMGHGYPSKMNWG (Synthetically generated cMet-binding peptide sequence) [SEQ ID NO: 471]”, in the test with cMet-Fc fusion protein, the “Protein ELISA” value is 3.7 fold over background. The “WC ELISA” value in test [1] came out at 1.27 fold over background.
For “GSDMNCTVLAQDQIFCFREAP (Synthetically generated cMet-binding peptide sequence) [SEQ ID NO: 386]”, in that order: 3.0 fold over background and 1.37 fold over background.
For “AQFMYEKEHYVMSISLPGLWFY (Synthetically generated cMet-binding peptide sequence) [SEQ ID NO: 486]”, the “Protein ELISA” value in the test with cMet-Fc fusion protein worked out at 3.0 fold over background. For the same compound, in test [1], the “WC ELISA” value was 1.63 fold over background.
As for “AGMTLCAGPPTFECYEVGT (Synthetically generated cMet-binding peptide sequence) [SEQ ID NO: 092]”, the “Protein ELISA” value in the test with cMet-Fc fusion protein amounted to 12.3 fold over background. For the same compound, the “WC ELISA” value in test [1] was determined as 1.23 fold over background.
As to `CC(=O)N[C@@H](C)C(=O)NCC(=O)N[C@@H](CO)C(=O)N[C@@H](Cc1ccccc1)C(=O)N[C@@H](C)C(=O)N[C@H]1CSSC[C@@H](C(=O)N[C@H](C(=O)N[C@@H](CCC(=O)O)C(=O)N[C@@H](Cc2ccccc2)C(=O)NCC(=O)N[C@H](C(=O)NCC(=O)NCC(=O)NCC(=O)N[C@@H](CCCCNC(=O)c2ccc3c(c2)C(=O)OC32c3ccc(O)cc3Oc3cc(O)ccc32)C(N)=O)[C@@H](C)O)C(C)C)NC(=O)[C@H](C)NC(=O)[C@H](Cc2ccccc2)NC(=O)[C@H]([C@@H](C)O)NC(=O)[C@@H]2CCCN2C(=O)[C@@H]2CCCN2C(=O)CNC(=O)[C@H](CCCCN)NC1=O` [SEQ ID NO: 053], the “Protein ELISA” value at cMet-Fc fusion protein turned out to be 18.1 fold over background. Further, the “WC ELISA” value in test [1] was found to be 1.27 fold over background.
Turning to “AGETFCVGNPSFECWSWGT (Synthetically generated cMet-binding peptide sequence) [SEQ ID NO: 094]”, the “Protein ELISA” value with cMet-Fc fusion protein is recorded as 10.3 fold over background. In test [1], the “WC ELISA” value was determined as 1.27 fold over background.
For “AGSIACTGWPYFSCIDLGT (Synthetically generated cMet-binding peptide sequence) [SEQ ID NO: 088]”, in that order: 5.6 fold over background and 1.10 fold over background.
For “GDYRMCQISDMWGNYECSSDDP (Synthetically generated cMet-binding peptide sequence) [SEQ ID NO: 400]”, in that order: 6.1 fold over background and 1.30 fold over background.
In the same order, the values of “AGQFYCSGPPTFQCIMIGT (Synthetically generated cMet-binding peptide sequence) [SEQ ID NO: 089]” are 12.4 fold over background and 1.23 fold over background.
For “GSFWNCTTDLGAMSDCGFFAP (Synthetically generated cMet-binding peptide sequence) [SEQ ID NO: 383]”, the “Protein ELISA” value in the test with cMet-Fc fusion protein was found to be 3.1 fold over background. In test [1], the “WC ELISA” value worked out at 1.37 fold over background.
For `CC[C@H](C)[C@H](NC(=O)CNC(=O)[C@H](CCC(N)=O)NC(=O)[C@@H](NC(=O)[C@H](CCC(N)=O)NC(=O)[C@H](C)NC(C)=O)[C@@H](C)CC)C(=O)N[C@@H](CCC(N)=O)C(=O)N[C@@H](CCCCN)C(=O)N[C@H](C(=O)N[C@@H](CCC(=O)O)C(=O)N[C@@H](CCC(N)=O)C(=O)NCC(=O)N[C@@H](CCC(=O)O)C(=O)N[C@@H](Cc1ccccc1)C(=O)N[C@@H](Cc1ccc(O)cc1)C(=O)N[C@@H](Cc1c[nH]c2ccccc12)C(=O)N[C@@H](Cc1ccccc1)C(=O)N[C@@H](CC(N)=O)C(=O)N[C@@H](Cc1c[nH]c2ccccc12)C(=O)N[C@@H](Cc1ccccc1)C(=O)N1CCC[C@H]1C(=O)N[C@@H](C)C(=O)NCC(=O)NCC(=O)NCC(=O)N[C@@H](CCCCNC(=O)c1ccc2c(c1)C(=O)OC21c2ccc(O)cc2Oc2cc(O)ccc21)C(N)=O)[C@@H](C)O` [SEQ ID NO: 450], the “Protein ELISA” value on cMet-Fc fusion protein turned out to be 4.3 fold over background. The “WC ELISA” value in test [1] is recorded as 1.10 fold over background.
Take “AGETKCSGPPYFYCWMEGT (Synthetically generated cMet-binding peptide sequence) [SEQ ID NO: 093]”: the “Protein ELISA” value with cMet-Fc fusion protein is 16.3 fold over background. Besides, in test [1], the “WC ELISA” value amounted to 1.23 fold over background.
